Experiment [1] concerns the target PGR5a fused to the N-terminal part of YFP (PGR5a-YFP^n) (cucumber (Cucumis sativus L.)). The experiment is described as follows: split reporter (BiFC, NanoBiT); halves of YFP, transient expression in N. benthamiana leaves, confocal microscopy on the third day; also after 30 min in the dark (state 1) or red light (state 2).
Experiment [2] has as its target cyt b6f complex of cucumber thylakoid membranes (cucumber (endogenous in cucumber thylakoids)). The experiment is described as follows: native gel or EMSA; blue native PAGE of thylakoid membranes (cucumber or tobacco) dissolved in an equal volume of 2% DM, 4 °C, followed by immunoblotting with anti-PGR5; leaf discs also arrested in state 1 or state 2, dark or red light, or incubated with Put. On the technique in general: Mobility shift assays separate free from complexed probe on a gel.

In turn, “Lhcb3 fused to the C-terminal part of YFP (Lhcb3-YFP^c) (natural protein)” came in with a YFP fluorescence intensity (BiFC), stronger in state 2 than in state 1 in experiment [1] of 64%. For the substance “PetC fused to the C-terminal part of YFP (PetC-YFP^c) (natural protein)”, the YFP fluorescence intensity (BiFC), stronger in state 1 than in state 2 in experiment [1] was determined as 64%. “PsaH fused to the C-terminal part of YFP (PsaH-YFP^c) (natural protein)” yielded a YFP fluorescence intensity (BiFC), stronger in state 2 than in state 1 in experiment [1] of 67%.

Regarding “native PGR5 protein of cucumber thylakoid membranes (natural protein)”, in experiment [2], the PGR5 abundance in the cyt b6f complex, higher in state 1 than in state 2 amounted to 40%.

The values above are taken from paper PMC7933433.
